Laboratory results taken from article PMC5770380.

Target: chromatin fibers containing chemically produced H3K9me3 (histone octamers on 12 x 601 array DNA, DA1 or DA2 labelled) (human)

For “Heterochromatin protein 1α (HP1α, CBX5) (from UniProt P45973 1-191) (natural protein)”, the time constant of the increase of compaction (FRET, DA2) after injection of 1 μM HP1α into flow cells with H3K9me3-modified chromatin fibers was 1.1 s.
